Test [1] addresses wild-type heterotrimeric human Gαi1β1γ1 (human) (UniProt P63096). As to the kind of experiment: MST.
For test [2] the target is unchanged. In words: MST. This is another data set of the same source.
The target is the same in test [3]. In words: MST. The source holds these as a separate data set.
The target is the same in test [4]. As to the kind of experiment: MST. This is another data set of the same source.
For test [5] the target is unchanged. In words: BLI. In general terms: In BLI a coated tip is dipped into the sample, and binding shifts an interference pattern.

Read-outs that look alike come from different tables or passages of the source.

For 2 substances, Kd, KD of the high-affinity binding mode (2:1 model) and KD of the lower-affinity binding mode (2:1 model) results are on record in paper PMC8176890.

What is called Kd is a measure of binding affinity in units of concentration.

wild-type heterotrimeric human Gαi1β1γ1 (human), sequence (P63096 whole entry, chain 1 of 3): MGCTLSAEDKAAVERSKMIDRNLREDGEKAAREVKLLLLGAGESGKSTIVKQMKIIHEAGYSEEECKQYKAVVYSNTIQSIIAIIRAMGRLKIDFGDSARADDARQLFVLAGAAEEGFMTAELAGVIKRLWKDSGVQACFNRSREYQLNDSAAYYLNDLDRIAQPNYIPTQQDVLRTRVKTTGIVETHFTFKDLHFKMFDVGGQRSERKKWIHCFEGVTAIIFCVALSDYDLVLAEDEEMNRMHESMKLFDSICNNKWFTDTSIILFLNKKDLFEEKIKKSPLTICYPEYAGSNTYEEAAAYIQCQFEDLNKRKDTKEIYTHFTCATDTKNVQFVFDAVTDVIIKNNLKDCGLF
wild-type heterotrimeric human Gαi1β1γ1 (human), sequence (P62873 2-340, chain 2 of 3, further chain): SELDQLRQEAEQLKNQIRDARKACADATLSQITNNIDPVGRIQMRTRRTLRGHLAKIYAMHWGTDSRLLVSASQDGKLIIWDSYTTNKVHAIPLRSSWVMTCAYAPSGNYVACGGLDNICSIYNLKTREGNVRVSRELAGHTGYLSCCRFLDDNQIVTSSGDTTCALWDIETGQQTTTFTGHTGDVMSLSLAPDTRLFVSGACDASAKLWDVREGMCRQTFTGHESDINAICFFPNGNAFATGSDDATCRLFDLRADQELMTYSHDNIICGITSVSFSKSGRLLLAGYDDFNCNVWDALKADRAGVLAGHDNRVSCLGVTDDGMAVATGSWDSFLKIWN
wild-type heterotrimeric human Gαi1β1γ1 (human), sequence (P63211 2-74, chain 3 of 3, further chain): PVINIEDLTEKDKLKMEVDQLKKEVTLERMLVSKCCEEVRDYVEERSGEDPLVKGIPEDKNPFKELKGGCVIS

Take “NTS-NTSR1 complex with the 5-alanine mutant TM86V-L167R E166A/K176A/K178A/S182A/R185A (from UniProt P20789 50-390)”: the Kd in test [1] was found to be 347 nM.

As for “NTS-NTSR1 complex: neurotensin 8-13 bound to rat NTSR1 TM86V-L167R ΔIC3B (from UniProt P20789 50-390)”, the Kd in test [2] was 236 nM; in test [3], 53 nM; in test [4], 1400 nM; in test [1], 76 nM. In test [5], the KD of the high-affinity binding mode (2:1 model) stood at 5.8 nM. Also, in test [5], the KD of the lower-affinity binding mode (2:1 model) was 38 nM.
